Measurements reported in PMC3458955 (2012).

Biological target: CXCL12α (Homo sapiens, UniProt P48061)
Test: total internal reflection ellipsometry (TIRE) on Ishikawa cell membranes; given as Ka

B1: CXCR4 (protein)
chain: MEGISIYTSDNYTEEMGSGDYDSMKEPCFREENANFNKIFLPTIYSIIFLTGIVGNGLVILVMGYQKKLRSMTDKYRLHLSVADLLFVITLPFWAVDAVANWYFGNFLCKAVHVIYTVNLYSSVLILAFISLDRYLAIVHATNSQRPRKLLAEKVVYVGVWIPALLLTIPDFIFANVSEADDRYICDRFYPNDLWVVVFQFQHIMVGLILPGIVILSCYCIIISKLSHSKGHQKRKALKTTVILILAFFACWLPYYIGISIDSFILLEIIKQGCEFENTVHKWISITEALAFFHCCLNPILYAFLGAKFKTSAQHALTSVSRGSSLKILSKGKRGGHSSVSTESESSSFHSS
With B1 the Kd was 0.714 nM.
